Laboratory results as given in patent publication US20240101668A1 (WUGEN, published 2024).

Legend:
huFLT3-T227-His = molecular target: T1, huFLT3-T227-His (human, UniProt P36888 27-543); assay: BLI
T1 construct: extracellular domain; also called FLT3 WT
Experimental: (§1) Discovered scFvs were analyzed for binding to huCD33-R69-His or huCD33-G69-Fc recombinant proteins (for anti-CD33 scFvs; for CLL-1 scFvs, huCLL1-K244-Avi-Tev-His or huCLL1-Q244-Avi-Tev-His were used; for FLT3, huFLT3-T227-His or huFLT3-M227-Fc were used) using BLI on a ForteBio Octet HTX instrument. Streptavidin-coated biosensors were loaded with biotinylated anti-V5 tag monoclonal antibody for 5 min and were then quenched and blocked with 20 μM amine-PEG2-Biotin for 5 min. scFvs were captured on biosensors from scFv clone periplasmic extracts. huCD33 (or huCLL-1, or huFLT3) proteins were then associated with the captured scFvs for 2 minutes, followed by dissociation with buffer (1×HBST [10 mM HEPES pH 7.4, 150 mM NaCl, 0.05% Tween-20], 1 g/L BSA) for 5 minutes. […] Data was fitted with 1:1 Langmuir equation and off-rate values were reported.

huFLT3-M227-Fc = molecular target: T2, huFLT3-M227-Fc (human, UniProt P36888 27-543); assay: BLI
T2 construct: extracellular domain; also called FLT3 Mutant
Experimental: as §1

[1] = molecular target: T3, huCD33-G69-Fc recombinant protein (human, UniProt P20138 18-259); assay: BLI;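 further: scFvs from periplasmic extracts captured on biosensors via anti-V5 antibody, exposed to recombinant huCD33 variants for 2 min, 5 min dissociation, scored as binding, no binding or ambiguous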
T3 construct: extracellular domain; also called CD33 R69G

[2] = molecular target: T4, huCD33-R69 stably expressed on Jurkat cells (human, UniProt P20138 18-364); assay: FACS on cells;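 further: fixed Jurkat cells bearing either CD33 variant, barcoded by dye, exposed to myc-tagged scFv periplasmic extracts, detected with anti-myc PE antibody and read by flow cytometry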
T4 construct: whole, on cells; >200,000 receptors per cell; also called CD33 WT; CD33^ARG69
Experimental: (§2) Jurkat cells were engineered to stably express either the huCD33-R69 or huCD33-G69 variant at >200,000 receptors per cell. Parental, huCD33-R69, and huCD33-G69 Jurkat cell lines were stained with differing levels of CellTrace Violet Cell Proliferation Kit (ThermoFisher, cat. #C34557) to barcode each cell line. Barcoded Jurkat cell lines were fixed with paraformaldehyde and incubated with myc-labeled scFv periplasmic extracts and a secondary anti-myc PE-conjugated monoclonal antibody. Appropriate positive and negative controls were used. Stained cells were analyzed by flow cytometry (CytoFLEX, Beckman Coulter, Inc.) and binding was assessed by change in PE mean fluorescence intensity (MFI) of the barcoded cell populations.

[3] = molecular target: T5, huCD33-G69 stably expressed on Jurkat cells (human, UniProt P20138 18-364); assay: FACS on cells;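 further: fixed Jurkat cells bearing either CD33 variant, barcoded by dye, exposed to myc-tagged scFv periplasmic extracts, detected with anti-myc PE antibody and read by flow cytometry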
T5 construct: whole, on cells; >200,000 receptors per cell; also called CD33 Mutant; CD33 R69G
Experimental: as §2

[4] = molecular target: T6, huFLT3-T227 stably expressed on Ramos cells (human, UniProt P36888 27-993); assay: FACS on cells
T6 construct: whole, on cells; also called FLT3 WT
Experimental: (§3) For FLT3, Ramos cells were engineered to stably express either the huFLT3-T227 or huFLT3-M227 variant at >200,000 receptors per cell. Parental, huFLT3-T227, and huFLT3-M227 Ramos cell lines were stained with differing levels of CellTrace Violet Cell Proliferation Kit (ThermoFisher, cat. #C34557) to barcode each cell line. Barcoded Ramos cell lines were fixed with paraformaldehyde and incubated with myc-labeled scFv periplasmic extracts and a secondary anti-myc PE-conjugated monoclonal antibody. Appropriate positive and negative controls were used. Stained cells were analyzed by flow cytometry (CytoFLEX, Beckman Coulter, Inc.) and binding was assessed by change in PE mean fluorescence intensity (MFI) of the barcoded cell populations.

[5] = molecular target: T7, huFLT3-M227 stably expressed on Ramos cells (human, UniProt P36888 27-993); assay: FACS on cells
T7 construct: whole, on cells; also called FLT3 Mutant
Experimental: as §3

T4 sequence (P20138 18-364): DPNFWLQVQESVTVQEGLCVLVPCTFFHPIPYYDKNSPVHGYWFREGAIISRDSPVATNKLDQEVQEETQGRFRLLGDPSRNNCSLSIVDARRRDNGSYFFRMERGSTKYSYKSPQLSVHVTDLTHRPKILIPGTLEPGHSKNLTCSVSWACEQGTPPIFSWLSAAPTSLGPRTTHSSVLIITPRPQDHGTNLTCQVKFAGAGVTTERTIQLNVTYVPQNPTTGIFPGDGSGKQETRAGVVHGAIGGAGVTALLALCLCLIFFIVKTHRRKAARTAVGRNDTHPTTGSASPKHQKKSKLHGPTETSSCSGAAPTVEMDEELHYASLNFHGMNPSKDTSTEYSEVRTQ
T5 sequence (P20138 18-364 R69G): as the sequence (P20138 18-364) above, with R52G counted along it
T3 sequence (P20138 18-259 R69G): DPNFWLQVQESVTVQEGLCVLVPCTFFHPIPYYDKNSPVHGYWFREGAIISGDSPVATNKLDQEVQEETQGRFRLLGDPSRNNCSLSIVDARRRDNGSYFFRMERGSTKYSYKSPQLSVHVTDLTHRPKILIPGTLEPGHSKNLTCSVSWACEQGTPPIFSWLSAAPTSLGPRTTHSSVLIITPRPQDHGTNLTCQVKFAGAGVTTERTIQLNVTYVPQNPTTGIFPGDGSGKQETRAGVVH

| Binder | binding result (huFLT3-T227-His) | binding result (huFLT3-M227-Fc) | binding result [1] | geometric mean MFI fold change over Jurkat parental [2] | geometric mean MFI fold change over Jurkat parental [3] | FACS geometric mean fold change over Jurkat parental [4] | FACS geometric mean fold change over Jurkat parental [5] |
| --- | --- | --- | --- | --- | --- | --- | --- |
| Polypeptide No. 230 (scFv, V domains shown, scFv) VH: QVQLVQSGAEVKKPGSSVKVSCKASGGTFSSNAINWVRQAPGQGLEWMGGIIPLFGTTNYAQKFQGRVTITADESTSTAYMELSSLRSEDTAVYYCARVLSGWYGTYYFDYWGQGTLVTVSS VL: EIVMTQSPATLSVSPGERATLSCRASQSVSADYIAWYQQKPGQAPRLLIYDVSTRASGIPARFSGSGSGTEFTLTISSLQSEDFAVYYCQHYGSSQVTFGQGTKVEIKR | binds | binds | – | – | – | – | – |
| Polypeptide No. 17 (scFv, V domains shown, scFv) VH: not shown VL: DIQMTQSPSSLSASVGDRVTITCRASQGISNNLNWYQQKPGKAPKLLIYESSTLETGVPSRFSGSGSGTDFTLTISSLQPEDFATYYCQQSYSAPLTFGGGTKVEIKR | – | – | no binding | 2 to 10 fold | < 2 fold | – | – |
| Polypeptide No. 21 (scFv, V domains shown, scFv) VH: not shown VL: DIQMTQSPSSLSASVGDRVTITCQASQDISNNLNWYQQKPGKAPKLLIYAASGLQSGVPSRFSGSGSGTDFTLTISSLQPEDFATYYCQQANSFPLTFGGGTKVEIKR | – | – | no binding | 2 to 10 fold | < 2 fold | – | – |
| Polypeptide No. 217 (scFv, V domains shown, scFv) VH: QVQLVQSGAEVKKPGSSVKVSCKASGYTFTTFYLHWVRQAPGQGLEWIGGIIPMSGTANYAQKFQGRVTITADESTSTAYMELSSLRSEDTAVYYCASGGENGMDVWGQGTTVTVSS VL: not shown | binds | binds | – | – | – | – | – |
| Polypeptide No. 19 (scFv, V domains shown, scFv) VH: EVQLLESGGGLVQPGGSLRLSCAASGFTFSSYWMHWVRQAPGKGLEWVSGFSGSARTYYADSVKGRFTISRDNSKNTLYLQMNSLRAEDTAVYYCAREWSGFDYWGQGTLVTVSS VL: DIQMTQSPSSLSASVGDRVTITCRASQNIGPWLAWYQQKPGKAPKLLIYDAKDLHPGVPSRFSGSGSGTDFTLTISSLQPEDFATYYCQQANTFPMTFGQGTRLEIKR | – | – | no binding | > 30 fold | < 2 fold | – | – |
| Polypeptide No. 23 (scFv, V domains shown, scFv) VH: QVQLVQSGAEVKKPGASVKVSCKASGYPFTAHYIHWVRQAPGQGLEWMGWINPNSGGTNYAQKFQGRVTMTRDTSTSTVYMELSSLRSEDTAVYYCARDVEMATIGAYWYFDLWGRGTLVTVSS VL: DIQMTQSPSSLSASVGDRVTITCRASQGINNWLAWYQQKPGKAPKLLIYDASNLETGVPSRFSGSGSGTDFTLTISSLQPEDFATYYCQQANSFPPTFGQGTKLEIKR | – | – | no binding | 2 to 10 fold | < 2 fold | – | – |
| Polypeptide No. 203 (scFv, V domains shown, scFv) VH: QVQLVQSGAEVKKPGSSVKVSCKASGYTLTELSMHWVRQAPGQGLEWMGRIIPISGTANYAQKFQGRVTITADESTSTAYMELSSLRSEDTAVYYCARAARYCSSTSCYWRDGMDVWGQGTTVTVSS VL: not shown | no binding | – | – | – | – | < 2 fold | – |
| Polypeptide No. 232 (scFv, V domains shown, scFv) VH: QVQLVQSGAEVKKPGASVKVSCKASGYTFTSYGIHWVRQAPGQGLEWMGGIIPIFGTASYAQKFQGRVTMTRDTSTSTVYMELSSLRSEDTAVYYCTRSNGIAAAGTHWYFDLWGRGTLVTVSS VL: DIQMTQSPSSLSASVGDRVTITCRASQNIANSLNWYQQKPGKAPKLLIYAASSLQSGVPSRFSGSGSGTDFTLTISSLQPEDFATYYCQQYSSYPPTFGPGTKVDIKR | binds | binds | – | – | – | – | – |
| Polypeptide No. 216 (scFv, V domains shown, scFv) VH: QVQLVQSGAEVKKPGSSVKVSCKASGNTFTMYYMHWVRQAPGQGLEWVGAIIPISGTVIYARKFQGRVTITADESTSTAYMELSSLRSEDTAVYYCARLSGGRMYDAFDIWGQGTTVTVSS VL: not shown | binds | binds | – | – | – | – | – |
| Polypeptide No. 18 (scFv, V domains shown, scFv) VH: QVQLVQSGAEVKKPGASVKVSCKASGYTFTDHYMHWVRQAPGQGLEWMGWINPNSGGTNYAQKFQGRVTMTRDTSTSTVYMELSSLRSEDTAVYYCAKDKFGDEGSGWYGDFQHWGQGTLVTVSS VL: not shown | – | – | no binding | 2 to 10 fold | < 2 fold | – | – |
| Polypeptide No. 234 (scFv, V domains shown, scFv) VH: QVQLVQSGAEVKKPGSSVKVSCKASGHTFTAYYMHWVRQAPGQGLEWMGWMSPYSGNTGYAQNFQGRVTITADESTSTAYMELSSLRSEDTAVYYCARATRGTIQHWGQGTLVTVSS VL: not shown | binds | binds | – | – | – | – | – |
| Polypeptide No. 227 (scFv, V domains shown, scFv) VH: QVQLVQSGAEVKKPGSSVKVSCKASGYTLNELFMHWVRQAPGQGLEWVGGIIPMSGTTFYAQTFQGRVTITADESTSTAYMELSSLRSEDTAVYYCAKGVRQYSYGRYYYGMDVWGQGTLVTVSS VL: DIQMTQSPSSLSASVGDRVTITCRASQSVSSYLNWYQQKPGKAPKLLIYGASNLQSGVPSRFSGSGSGTDFTLTISSLQPEDFATYYCQQSYTTPWTFGQGTRLEIKR | binds | binds | – | – | – | – | – |
| Polypeptide No. 22 (scFv, V domains shown, scFv) VH: QVQLVQSGAEVKKPGASVKVSCKASGYTFTDYYIHWVRQAPGQGLEWMGWINPNSGGTNYAQEFQGRVTMTRDTSTSTVYMELSSLRSEDTAVYYCARDHRIAVAGSYFDYWGQGTLVTVSS VL: DIQMTQSPSSLSASVGDRVTITCRASRSIRTWLAWYQQKPGKAPKLLIYAASSLQTGVPSRFSGSGSGTDFTLTISSLQPEDFATYYCQQSYSTPYTFGQGTKLEIKR | – | – | no binding | 2 to 10 fold | < 2 fold | – | – |
| Polypeptide No. 209 (scFv, V domains shown, scFv) VH: EVQLLESGGGLVQPGGSLRLSCAASGFAFSSYVLHWVRQAPGKGLEWVAGIWVDGHNKDYADSVKGRFTISRDNSKNTLYLQMNSLRAEDTAVYYCAREFGAAGSFQHWGQGTLVTVSS VL: DIQMTQSPSSLSASVGDRVTITCRASQSISTWLAWYQQKPGKAPKLLIYDASKLETGVPSRFSGSGSGTDFTLTISSLQPEDFATYYCQQSYTTPYTFGQGTKVEIKR | binds | binds | – | – | – | – | – |
| Polypeptide No. 202 (scFv, V domains shown, scFv) VH: QVQLVQSGAEVKKPGASVKVSCKASGYTFTNYYMHWVRQAPGQGLEWMGVINPSGGSTNYAQKFQGRVTMTRDTSTSTVYMELSSLRSEDTAVYYCARAGVGAFHIWGQGTMVTVSS VL: DIQMTQSPSSLSASVGDRVTITCRASQSIRSWLAWYQQKPGKAPKLLIYDASNLETGVPSRFSGSGSGTDFTLTISSLQPEDFATYYCQQIYSLPRTFGQGTKVEIKR | no binding | – | – | – | – | < 2 fold | 2 to 10 fold |
| Polypeptide No. 25 (scFv, V domains shown, scFv) VH: QVQLVQSGAEVKKPGASVKVSCKASGYTFTGYYMHWVRQAPGQGLEWMGRINPNGGSTTYAQKFQGRVTMTRDTSTSTVYMELSSLRSEDTAVYYCARDDFYYYYLDFWGKGTTVTVSS VL: DIQMTQSPSSLSASVGDRVTITCRASQSINDWLAWYQQKPGKAPKLLIYAASNLQSGVPSRFSGSGSGTDFTLTISSLQPEDFATYYCQQGYSTPPTFGQGTKVEIKR | – | – | no binding | > 30 fold | < 2 fold | – | – |
| Polypeptide No. 16 (scFv, V domains shown, scFv) VH: EVQLVESGGGLVKPGGSLRLSCAASGFTFSDNSMNWVRQAPGKGLEWVSYISSSGSTIYYADSVKGRFTISRDDSKNTLYLQMNSLKTEDTAVYYCARGRASSWPNWFDPWGQGTLVTVSS VL: DIVMTQSPLSLPVTPGEPASISCRSSQSLLHSNGYNYLDWYLQKPGQSPQLLIYSASNLQSGVPDRFSGSGSGTDFTLKISRVEAEDVGVYYCMQALQTPPTFGQGTKLEIKR | – | – | no binding | 2 to 10 fold | < 2 fold | – | – |
| Polypeptide No. 221 (scFv, V domains shown, scFv) VH: QVQLVQSGAEVKKPGASVKVSCKASGYTFTDNYMHWVRQAPGQGLEWMGWMTPDSNNTGFAQNFQGRVTMTRDTSTSTVYMELSSLRSEDTAVYYCALGDGPFGMDVWGQGTTVTVSS VL: DIVMTQSPLSLPVTPGEPASISCRSSQSLLHSNGYNYLDWYLQKPGQSPQLLIYGASYLQSGVPDRFSGSGSGTDFTLKISRVEAEDVGVYYCMQALQGPITFGQGTKVEIKR | no binding | – | – | – | – | < 2 fold | 2 to 10 fold |
| Polypeptide No. 1 (scFv, V domains shown, scFv) VH: QVQLVQSGAEVKKPGASVKVSCKASGYSFTGYYIHWVRQAPGQGLEWMGWINPNSGGTNYAQKFQGRVTMTRDTSTSTVYMELSSLRSEDTAVYYCARDQWDGYNSGYFDYWGQGTLVTVSS VL: DIQMTQSPSSLSASVGDRVTITCRASQTINDWLAWYQQKPGKAPKLLIYSASTLHSGVPSRFSGSGSGTDFTLTISSLQPEDFATYYCQQAYSTPWTFGQGTKVEIKR | – | – | no binding | > 30 fold | < 2 fold | – | – |
